{
  "source": "paper PMC8465637",
  "about": "“Three ParA Dimers Cooperatively Assemble on Type Ia Partition Promoters” (Genes, 2021)",
  "molecules": {"B1": {"name": "120-bp IR2-2* (perfect IR in the middle) (dsDNA)", "DNA 1": "GTAGTGTTGCTCTTATTTTAAACAATCAGTAGGTTTTTTGATGACTTTGCGATTTTGTTGTTGTCAGTAAGTAAATTGCAAAGTTTAATAAAAAAACTCAGTACAATGATTAAAGGATGT", "DNA 2": "ACATCCTTTAATCATTGTACTGAGTTTTTTTATTAAACTTTGCAATTTACTTACTGACAACAACAAAATCGCAAAGTCATCAAAAAACCTACTGATTGTTTAAAATAAGAGCAACACTAC"}, "B2": {"name": "120-bp IR2-2*4 (dsDNA)", "DNA 1": "B1 DNA 1 with T98G, G101A, T102A, A103G", "DNA 2": "B1 DNA 2 with T18C, A19T, C20T, A23C"}, "B3": {"name": "80-bp IR3-4 probe (dsDNA)", "DNA 1": "GGTTTTTTGATGAGTCTCTGATTTTGTTGTTGCTTTGCAGTAAATTCAGAGATTTAATAAAAAAACGCAAAGCAATGATT", "DNA 2": "AATCATTGCTTTGCGTTTTTTTATTAAATCTCTGAATTTACTGCAAAGCAACAACAAAATCAGAGACTCATCAAAAAACC"}, "B4": {"name": "PparAB_F 58-bp (IR3-4) (dsDNA)", "DNA 1": "TTGTTGTTGCTTTGCAGTAAATTGCAAGATTTAATAAAAAAACGCAAAGCAATGATTA", "DNA 2": "TAATCATTGCTTTGCGTTTTTTTATTAAATCTTGCAATTTACTGCAAAGCAACAACAA"}, "B5": {"name": "ParAF (ParA of the Escherichia coli plasmid F partition system ParABSF) (natural protein, UniProt P62556 1-388, looked up)", "chain": "MKLMETLNQCINAGHEMTKAIAIAQFNDDSPEARKITRRWRIGEAADLVGVSSQAIRDAEKAGRLPHPDMEIRGRVEQRVGYTIEQINHMRDVFGTRLRRAEDVFPPVIGVAAHKGGVYKTSVSVHLAQDLALKGLRVLLVEGNDPQGTASMYHGWVPDLHIHAEDTLLPFYLGEKDDVTYAIKPTCWPGLDIIPSCLALHRIETELMGKFDEGKLPTDPHLMLRLAIETVAHDYDVIVIDSAPNLGIGTINVVCAADVLIVPTPAELFDYTSALQFFDMLRDLLKNVDLKGFEPDVRILLTKYSNSNGSQSPWMEEQIRDAWGSMVLKNVVRETDEVGKGQIRMRTVFEQAIDQRSSTGAWRNALSIWEPVCNEIFDRLIKPRWEIR", "notes": "native protein; also called SopA; source: E. coli strain DLT812 derivative carrying pDAG127 (ParaBAD::parAF), purified (heparin, Superdex 200, mono-Q)"}, "B6": {"name": "nsDNA 136-bp (dsDNA)", "DNA 1": "CAGTGAATTGTAATACGACTCACTATAGGGCGAATTGGAGCTCCACCGCGGTGGCGGCCGCTCTAGAACTAGTGGATCCCCCGGGCTGCAGGAATTCGATATCAAGCTTATCGATACCGTCGACCTCGAGGGGGGG", "DNA 2": "CCCCCCCTCGAGGTCGACGGTATCGATAAGCTTGATATCGAATTCCTGCAGCCCGGGGGATCCACTAGTTCTAGAGCGGCCGCCACCGCGGTGGAGCTCCAATTCGCCCTATAGTGAGTCGTATTACAATTCACTG"}, "B7": {"name": "PparAB_F 136-bp (dsDNA)", "DNA 1": "ATCTCCTTTTGTAGTGTTGCTCTTATTTTAAACAACTTTGCGGTTTTTTGATGACTTTGCGATTTTGTTGTTGCTTTGCAGTAAATTGCAAGATTTAATAAAAAAACGCAAAGCAATGATTAAAGGATGTTCAGAA", "DNA 2": "TTCTGAACATCCTTTAATCATTGCTTTGCGTTTTTTTATTAAATCTTGCAATTTACTGCAAAGCAACAACAAAATCGCAAAGTCATCAAAAAACCGCAAAGTTGTTTAAAATAAGAGCAACACTACAAAAGGAGAT"}, "B8": {"name": "PparAB_F 120-bp (motifs 122'34) (dsDNA)", "DNA 1": "GTAGTGTTGCTCTTATTTTAAACAACTTTGCGGTTTTTTGATGACTTTGCGATTTTGTTGTTGCTTTGCAGTAAATTGCAAGATTTAATAAAAAAACGCAAAGCAATGATTAAAGGATGT", "DNA 2": "ACATCCTTTAATCATTGCTTTGCGTTTTTTTATTAAATCTTGCAATTTACTGCAAAGCAACAACAAAATCGCAAAGTCATCAAAAAACCGCAAAGTTGTTTAAAATAAGAGCAACACTAC"}},
  "key": {"[1]": {"system": "ParB_F (SopB) (plasmid F)", "assay": "EMSA", "conditions": "apparent Kd; EMSA: 30 mM HEPES-KOH pH 7.5, 150 mM KCl, 3 mM MgCl2, 1 mM DTT, 10% glycerol, 37 C; SPR: 20 mM Hepes-KOH pH 7.4, 100 mM KCl, 10 mM MgCl2, 1 mM DTT, 24 C; MST: …"}, "[2]": {"target": "T1, ParA_F (SopA) (plasmid F, UniProt P62556 1-388)", "T1 sequence": "B5 chain", "assay": "fluorescence titration", "conditions": "apparent Kd; EMSA: 30 mM HEPES-KOH pH 7.5, 150 mM KCl, 3 mM MgCl2, 1 mM DTT, 10% glycerol, 37 C; SPR: 20 mM Hepes-KOH pH 7.4, 100 mM KCl, 10 mM MgCl2, 1 mM DTT, 24 C; MST: …"}, "[3]": {"target": "T1, ParA_F (SopA)", "assay": "EMSA; 3 uM ParA_F; EMSA: 30 mM HEPES-KOH pH 7.5, 150 mM KCl, 3 mM MgCl2, 1 mM DTT, 10% glycerol, 37 C; SPR: 20 mM Hepes-KOH pH 7.4, 100 mM KCl, 10 mM MgCl2, 1 mM DTT, 24 C; MST: 10 mM Tris-HCl pH 8, 150 mM NaCl, 50 mM CaCl2, 0.05% Tween 20, 20 mg/mL BSA, 25 C", "conditions": "protein: recombinant; tags: none (native); chain copies: 2; label: 5' Cy3"}, "[4]": {"target": "T1, ParA_F (SopA)", "assay": "fluorescence titration; apparent Kd; EMSA: 30 mM HEPES-KOH pH 7.5, 150 mM KCl, 3 mM MgCl2, 1 mM DTT, 10% glycerol, 37 C; SPR: 20 mM Hepes-KOH pH 7.4, 100 mM KCl, 10 mM MgCl2, 1 mM DTT, 24 C; MST: 10 mM Tris-HCl pH 8, 150 mM NaCl, 50 mM CaCl2, 0.05% Tween 20, 20 mg/mL BSA, 25 C", "conditions": "protein: recombinant; tags: none (native); chain copies: 2; label: 5' Cy3"}, "[5]": {"target": "T1, ParA_F (SopA)", "assay": "SPR; EMSA: 30 mM HEPES-KOH pH 7.5, 150 mM KCl, 3 mM MgCl2, 1 mM DTT, 10% glycerol, 37 C; SPR: 20 mM Hepes-KOH pH 7.4, 100 mM KCl, 10 mM MgCl2, 1 mM DTT, 24 C; MST: 10 mM Tris-HCl pH 8, 150 mM NaCl, 50 mM CaCl2, 0.05% Tween 20, 20 mg/mL BSA, 25 C", "conditions": "protein: recombinant; tags: none (native); chain copies: 2; label: biotin"}, "[6]": {"target": "the molecule itself", "assay": "SEC; analytical gel filtration on a calibrated Superdex 75 10/300GL column; ParAF 4 µM in buffer E (50 mM bis-Tris pH 6, 400 mM NaCl, 0.5 mM DTT), with or without 1 mM ADP; one peak at 9.5 mL"}, "[7]": {"target": "T1, ParA_F (SopA)", "assay": "SPR; 1 uM ParA_F, no nucleotide; EMSA: 30 mM HEPES-KOH pH 7.5, 150 mM KCl, 3 mM MgCl2, 1 mM DTT, 10% glycerol, 37 C; SPR: 20 mM Hepes-KOH pH 7.4, 100 mM KCl, 10 mM MgCl2, 1 mM DTT, 24 C; MST: 10 mM Tris-HCl pH 8, 150 mM NaCl, 50 mM CaCl2, 0.05% Tween 20, 20 mg/mL BSA, 25 C", "conditions": "protein: recombinant; tags: none (native); chain copies: 2; label: biotin"}, "[8]": {"target": "T1, ParA_F (SopA)", "assay": "SPR; 10 mM Mg2+, no nucleotide; 3 dimers per DNA; EMSA: 30 mM HEPES-KOH pH 7.5, 150 mM KCl, 3 mM MgCl2, 1 mM DTT, 10% glycerol, 37 C; SPR: 20 mM Hepes-KOH pH 7.4, 100 mM KCl, 10 mM MgCl2, 1 mM DTT, 24 C; MST: 10 mM Tris-HCl pH 8, 150 mM NaCl, 50 mM CaCl2, 0.05% Tween 20, 20 mg/mL BSA, 25 C", "conditions": "protein: recombinant; tags: none (native); chain copies: 2; label: biotin"}, "[9]": {"target": "T1, ParA_F (SopA)", "assay": "fluorescence titration; EMSA: 30 mM HEPES-KOH pH 7.5, 150 mM KCl, 3 mM MgCl2, 1 mM DTT, 10% glycerol, 37 C; SPR: 20 mM Hepes-KOH pH 7.4, 100 mM KCl, 10 mM MgCl2, 1 mM DTT, 24 C; MST: 10 mM Tris-HCl pH 8, 150 mM NaCl, 50 mM CaCl2, 0.05% Tween 20, 20 mg/mL BSA, 25 C", "conditions": "protein: recombinant; tags: none (native); chain copies: 2; label: 5' Cy3"}, "[10]": {"target": "T1, ParA_F (SopA)", "assay": "EMSA; equimolar ParB_F; estimate close to the probe concentration; no supershift; EMSA: 30 mM HEPES-KOH pH 7.5, 150 mM KCl, 3 mM MgCl2, 1 mM DTT, 10% glycerol, 37 C; SPR: 20 mM Hepes-KOH pH 7.4, 100 mM KCl, 10 mM MgCl2, 1 mM DTT, 24 C; MST: 10 mM Tris-HCl pH 8, 150 mM NaCl, 50 mM CaCl2, 0.05% Tween 20, 20 mg/mL BSA, 25 C", "conditions": "protein: recombinant; tags: none (native); chain copies: 2; label: 5' Cy3"}, "[11]": {"target": "T1, ParA_F (SopA)", "assay": "MST; no nucleotide; EMSA: 30 mM HEPES-KOH pH 7.5, 150 mM KCl, 3 mM MgCl2, 1 mM DTT, 10% glycerol, 37 C; SPR: 20 mM Hepes-KOH pH 7.4, 100 mM KCl, 10 mM MgCl2, 1 mM DTT, 24 C; MST: 10 mM Tris-HCl pH 8, 150 mM NaCl, 50 mM CaCl2, 0.05% Tween 20, 20 mg/mL BSA, 25 C", "conditions": "protein: recombinant; tags: none (native); chain copies: 2; label: 5' Cy3"}, "[12]": {"target": "T1, ParA_F (SopA)", "assay": "EMSA; 3 mM Mg2+, apparent Kd; EMSA: 30 mM HEPES-KOH pH 7.5, 150 mM KCl, 3 mM MgCl2, 1 mM DTT, 10% glycerol, 37 C; SPR: 20 mM Hepes-KOH pH 7.4, 100 mM KCl, 10 mM MgCl2, 1 mM DTT, 24 C; MST: 10 mM Tris-HCl pH 8, 150 mM NaCl, 50 mM CaCl2, 0.05% Tween 20, 20 mg/mL BSA, 25 C", "conditions": "protein: recombinant; tags: none (native); chain copies: 2; label: 5' Cy3"}},
  "note": "Where a chain is given by its changes, count along the chain named.",
  "data": [
    {"molecule": "120-bp Cy3 probe for ParB_F (non-specific)", "values": [
      {"measurement": "Kd", "setting": "[1]", "result": 1000, "unit": "nM"}
    ]},
    {"molecule": "75-bp probe with motifs #1 and #3", "values": [
      {"measurement": "Kd", "setting": "[2]", "result": 1200, "unit": "nM"}
    ]},
    {"molecule": "B1", "values": [
      {"measurement": "binding result", "setting": "[3]", "result": "no binding"}
    ]},
    {"molecule": "B2", "values": [
      {"measurement": "binding result", "setting": "[3]", "result": "no binding"}
    ]},
    {"molecule": "B3", "values": [
      {"measurement": "Kd", "setting": "[4]", "result": "500 ± 325", "unit": "nM"}
    ]},
    {"molecule": "B4", "values": [
      {"measurement": "binding result", "setting": "[5]", "result": "no binding"}
    ]},
    {"molecule": "B5", "values": [
      {"measurement": "stoichiometry N", "setting": "[6]", "result": 2}
    ]},
    {"molecule": "B6", "values": [
      {"measurement": "binding result", "setting": "[7]", "result": "no binding"}
    ]},
    {"molecule": "B7", "values": [
      {"measurement": "binding result", "setting": "[8]", "result": "binds"}
    ]},
    {"molecule": "B8", "values": [
      {"measurement": "Kd", "setting": "[9]", "result": 130, "unit": "nM"},
      {"measurement": "Kd", "setting": "[10]", "result": "~10", "unit": "nM"},
      {"measurement": "Kd", "setting": "[11]", "result": "140 ± 23", "unit": "nM"},
      {"measurement": "Kd", "setting": "[12]", "result": "85 ± 20", "unit": "nM"}
    ]}
  ]
}
